# Tested on: MEF2C Response Element (MRE) from the desmin enhancer
# Experiment: Gel shift assay with MEF2 response element
# Format: binding
# Conditions: purified protein
# Excerpt: FIGS. 12A-E. JP2NT represses MEF2-mediated transcription by competing for the MEF2 Response Element (MRE). A) Enrichment of MEF2 binding motifs in ChIP-seq dataset. B) Gel shift assay of JP2NT binding to a desmin promoter-derived DNA sequence containing a WT or mutated MRE in vitro. C) Co-immunoprecipitation of HA-tagged JP2NT binding to MEF2C or Histone H3. D) & E) MEF2 activity assays in 293T cells co-transfected with luciferase under the control of an MRE, MEF2C and WT JP2NT (D) or a mutant lacking the ARR (E, JP2NT^ΔARR). n≥3 independent batches of cells; in each batch of experiments, 3 replicates were performed for each transfection; **p<0.01 vs. Ad-Empty.
# The MEF2 family, master regulators of hypertrophic genes in cardiomyocytes, binds to the A/T enriched consensus sequence (C/TTA(A/T)4TA G/A), which shares the same core sequence with TATA box. Thus, it was hypothesized that JP2NT directly interacts with MEF2 binding sites.
molecule,measurement,value
"JP2NT: shorter form of Junctophilin-2 including the first 565 amino acids of N-terminus of JP2 (protein, UniProt Q9BR39 1-565, looked up, fragment, GST or adenoviral forms, shorter form of Junctophilin-2 including the first 565 amino acids of N-terminus of JP2) MSGGRFDFDDGGAYCGGWEGGKAHGHGLCTGPKGQGEYSGSWNFGFEVAGVYTWPSGNTFEGYWSQGKRHGLGIETKGRWLYKGEWTHGFKGRYGIRQSSSSGAKYEGTWNNGLQDGYGTETYADGGTYQGQFTNGMRHGYGVRQSVPYGMAVVVRSPLRTSLSSLRSEHSNGTVAPDSPASPASDGPALPSPAIPRGGFALSLLANAEAAARAPKGGGLFQRGALLGKLRRAESRTSVGSQRSRVSFLKSDLSSGASDAASTASLGEAAEGADEAAPFEADIDATTTETYMGEWKNDKRSGFGVSERSSGLRYEGEWLDNLRHGYGCTTLPDGHREEGKYRHNVLVKDTKRRMLQLKSNKVRQKVEHSVEGAQRAAAIARQKAEIAASRTSHAKAKAEAAEQAALAANQESNIARTLARELAPDFYQPGPEYQKRRLLQEILENSESLLEPPDRGAGAAGLPQPPRESPQLHERETPRPEGGSPSPAGTPPQPKRPRPGVSKDGLLSPGAWNGEPSGEGSRSVTPSEGAGRRSPARPATERMAIEALQAPPAPSREPEVALYQG",interaction with MEF2C Response Element (MRE),interacts
